# Measurements reported in patent US20060293243A1, “Stable, buffered, pharmaceutical compositions including motilin-like peptides” (priority 2005, published 2006).
# Non-standard residues stand in square brackets, D forms with d. Me3N+ = N-terminal trimethylammonium
# Experiments:
# Assay type in all cases: physicochemical
# [1] = Stability of motilin-like peptide following autoclaving and storage (HPLC, undegraded peptide remaining); conditions: 30 μg/ml in 10 mM sodium acetate buffer, pH 5.0; Type I glass vials; autoclaved at 121° C. for 15 minutes; storage for 3 months at 55° C.
# Procedure: The motilin-like peptide of SEQ ID NO.: 1 was dissolved at a concentration of 30 μg/ml in 10 mM sodium acetate buffer, pH 5.0. Samples of the peptide solution stored in Type I glass vials were autoclaved at 121° C. for 15 minutes and the autoclaved samples were incubated at 5° C., 25° C., 40° C., or 55° C. The potency of the peptide following storage at each temperature was measured over time by testing samples after incubation of one week, two weeks, three weeks, one month and three months. Potency was determined by using HPLC to measure the amount of undegraded peptide remaining in each sample.
# It will be appreciated by those skilled in the art that stability data obtained at such elevated temperatures (i.e., accelerated storage conditions) may be used to predict stability at lower, more typical storage temperatures over extended periods of time.
# [2] = Stability profile of aqueous composition stored in Schott Type 1 glass vials (FIGS. 3 and 4); conditions: Schott Type 1 vials
# Source text: Some plastics have also proven to be effective in assisting in the stabilization of the peptide composition. In this regard, preferred plastics are cyclic olefin copolymers, available, for example, from West Pharmaceuticals under the product name CZ resin vials, or from Schott under the product name TopPac vials, or from Alcan packaging under the product name Ticona Topas serum vials. The compositions of the present invention may also be stored in PVC, as well as non-PVC flexible bags. When stored in the above described glass or plastic containers, the above-described storage times at the above-described storage temperatures can be achieved, although for storage periods of at least 18 months, Type I Plus (vapor treated silicon) vials and Type I Plus glass ampules are preferred. […] It will be appreciated by those skilled in the art that the measured stability of pharmaceutical compositions at elevated temperatures, such as 40° C. or higher, may serve as the basis of prediction of stability for longer periods at more typical storage temperatures, such as 20°-25° C. or 4°-8° C., for example. Such “accelerated storage” studies are common in the field of the present invention.
# [3] = Degradation during storage as a function of composition pH; conditions: pH approximately 3 to 9, most preferably approximately 4.8-5.2
# Procedure: In one embodiment, where the composition is provided in a “ready-to-use” form, the motilin-like peptide is dissolved in a buffer solution to provide an aqueous composition. […] More preferably, the pH of the pharmaceutical compositions is between approximately 4 and 6, more preferably 4.5 and 5.5 and, most preferably, between approximately 4.8-5.2. At these pH levels, the peptide of SEQ. ID. […] (The preferred pH of the composition may also be determined, in part, based on whether the composition is prepared as an aqueous composition or a lyophilized formulation, discussed below.)
# [4] = Stability of lyophilized formulations of motilin-like peptide compositions (HPLC after reconstitution in water); conditions: 30 μg/ml in 10 mM citrate buffer, 1% w/v sucrose, pH 6.0, stored in 20 ml vial at 40° C. for several months, reconstituted in water
# Procedure: The motilin-like peptide including SEQ ID NO.: 1 was dissolved at a concentration of 30 μg/ml in 10 mM citrate buffer and 1% w/v of sucrose (bulking agent) at pH 6.0. The composition was lyophilized by standard techniques and stored in a 20 ml vial at 40° C. The potency of the motilin-like peptide was measured at the time intervals indicated in FIG. 5, by reconstituting the composition in water. Potency was determined by using HPLC to measure the amount of undegraded peptide remaining in each sample. […] Again, it will be appreciated by those skilled in the art that the stability of pharmaceutical compositions at elevated temperatures, such as 40° C. as in FIG. 5, may serve as the basis of prediction of stability for longer periods at more typical storage temperatures, such as approximately 20° C.-25° C. or 4° C.-8° C., for example.
substance,measurement,setting,value
"(Me3N) ^+Phe-Val-Pro-Ile-Phe-Thr-Tyr-Gly-Glu-Leu-Gln-D-Arg-Leu-Lys-NH2 ({Me3N+}-FVPIFTYGELQ[dR]LK-NH2) [SEQ ID NO.: 1, synthetic motilin-like peptide receptor agonist]",potency retained (amount of undegraded peptide remaining by HPLC),[1],greater than 90%
same,stability (maintenance of high levels of potency),"[2]; 30 μg/ml, several months at 5° C. to 55° C. (FIG. 4)",demonstrated stability
same,stability (maintenance of high levels of potency),"[2]; approximately 5 μg/ml, several months at 5° C. to 55° C. (FIG. 3)",demonstrated stability
same,degradation during storage,[3],only minimal degradation
same,potency retained (amount of undegraded peptide remaining by HPLC),[4],greater than 90%
